Test results as given in patent publication US20120122128A1.

Assays:
[1] = target: FGFR3 of SEQ ID NO: 25 (Homo sapiens (Human)) (UniProt P22607); test: cell-based or functional assay
[2] = target: SNAP-25 peptide comprising amino acids 134-197 of SEQ ID NO: 5 (human); test: SPR (BIAcore 3000), peptide amine-coupled to CM5 chip, antibody as analyte, 1:1 fit
[3] = target: SNAP-25 peptide comprising amino acids 134-206 of SEQ ID NO: 5 (human); test: as above

Chain of FGFR3 of SEQ ID NO: 25 (Homo sapiens (Human)) (P22607 other isoform, or with tags, fused parts or gaps limits assumed): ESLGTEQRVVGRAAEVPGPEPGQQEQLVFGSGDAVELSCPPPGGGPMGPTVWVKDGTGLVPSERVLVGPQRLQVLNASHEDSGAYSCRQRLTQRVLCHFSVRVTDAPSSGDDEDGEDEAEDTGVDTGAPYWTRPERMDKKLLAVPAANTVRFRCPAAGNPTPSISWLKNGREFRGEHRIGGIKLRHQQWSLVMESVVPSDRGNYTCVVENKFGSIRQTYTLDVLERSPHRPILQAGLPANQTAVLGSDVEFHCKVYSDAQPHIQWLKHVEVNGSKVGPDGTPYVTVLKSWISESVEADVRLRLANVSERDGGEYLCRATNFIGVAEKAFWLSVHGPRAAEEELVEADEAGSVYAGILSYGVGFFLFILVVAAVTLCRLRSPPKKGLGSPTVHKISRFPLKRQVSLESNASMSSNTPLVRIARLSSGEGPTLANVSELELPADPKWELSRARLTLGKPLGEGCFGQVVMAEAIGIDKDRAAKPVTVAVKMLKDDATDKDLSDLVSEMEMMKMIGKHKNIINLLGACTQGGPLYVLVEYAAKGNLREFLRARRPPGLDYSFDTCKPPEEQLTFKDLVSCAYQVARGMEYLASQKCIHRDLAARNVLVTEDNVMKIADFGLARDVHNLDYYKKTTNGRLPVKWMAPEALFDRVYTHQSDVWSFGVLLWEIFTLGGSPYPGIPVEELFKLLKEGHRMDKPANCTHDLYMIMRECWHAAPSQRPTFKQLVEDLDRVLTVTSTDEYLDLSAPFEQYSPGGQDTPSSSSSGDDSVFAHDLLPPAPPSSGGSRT

Substance | EC50 (nM) of SNAP-25 cleavage, Western blot, PC-12 cells transfected with FGFR3 [1] | EC50 (nM) of SNAP-25 cleavage, Western blot, SiMa cells transfected with FGFR3 [1] | Kd [2] | koff [2] | kon [2] | Kd [3] | koff [3] | kon [3]
BoNT/A complex (from UniProt P0DPI0 2-1296) (enzyme) | 0.263 nM | 0.0377 nM |  |  |  |  |  | 
MC-6050 α-SNAP-25 mouse monoclonal antibody (Research & Diagnostic Antibodies) |  |  | 0.497 nM | 0.000882 s⁻¹ | 1.78e+06 M⁻¹ s⁻¹ | 19800 nM | 0.00607 s⁻¹ | 306 M⁻¹ s⁻¹
MC-6053 α-SNAP-25 mouse monoclonal antibody (Research & Diagnostic Antibodies) |  |  | 0.508 nM | 0.00118 s⁻¹ | 2.32e+06 M⁻¹ s⁻¹ | 240 nM | 2.56e-05 s⁻¹ | 
